Where no end group is shown, it is not given here. Cy5 = Cy5 fluorophore
Assays:
Test in all cases: fluorescence polarisation
[…]1(1-117) = […]1(1-117) (human, UniProt Q9H0R8 1-117)
LC3B(1-120) = LC3B(1-120) (human, UniProt Q9GZQ8 1-120)
LC3C(1-126) = LC3C(1-126) (human, UniProt Q9BXW4 1-126)
LC3A(1-120) = LC3A(1-120) (human, UniProt Q9H492 1-120)
[…]2(1-117) = […]2(1-117) (human, UniProt P60520 1-117)
GABARAP(1-116) = GABARAP(1-116) (human, UniProt O95166 1-116)

Measured: binding result

B1: p62-LIR peptide linked to a Cy5 fluorophore (peptide)
peptide: SDNSSGGDDDWTHLSSK-Cy5
binds: […]1(1-117) | LC3B(1-120) | LC3C(1-126) | LC3A(1-120) | […]2(1-117) | GABARAP(1-116)
